# Experimental data published in US20070149456A1, “Epithelial sodium channel inhibiting agents and uses therefor” (University of Pittsburgh, priority 2005, published 2007).
# Entries after “also recorded” stand apart in the source; their conditions may differ.
# B1: γ-43, synthetic 43-residue peptide corresponding to the tract Glu144-Lys186 of mouse γ ENaC (peptide)
# peptide: Ac-EAGSMRSTWEGTPPRFLNLIPLLVFNENEKGKARDFFTGRKRK-NH2
# B2: 8-residue fragment LPHPLQRL of α-26 (peptide)
# peptide: LPHPLQRL
# B3: α-26, synthetic 26-mer peptide representing the tract Asp206-Arg231 released from the mouse ENaC α subunit by furin cleavage (peptide)
# peptide: Ac-DLRGALPHPLQRLRTPPPPNPARSAR-NH2
# Tests used:
# [1] = target: T1, endogenous ENaC in HAE cells (Homo sapiens, UniProt P37088+P51168+P51170); assay: Amiloride-sensitive short circuit current in primary human airway epithelial (HAE) cell monolayers, Ussing chamber; assay type: cell-based; settings: HAE
# T1 construct: endogenous in cells; host or cells: primary human airway (bronchial) epithelial cells from transplant or donor lungs
# From the text: Primary Cultures of HAE Cells—HAE cells were obtained from excess pathological tissue remaining after lung transplantation or from organ donor lungs deemed not suitable for transplantation under a protocol approved by the University of Pittsburgh […] Review Board. All cells were isolated from second through sixth generation bronchi and grown on permeable Transwell supports (Coming Inc.) as previously described (Devor, D. C., and Pilewski, J. M. (1999), UTP inhibits Na^+ absorption in wild-type and DeltaF508 CFTR-expressing human bronchial epithelia, Am. J. Physiol. 276, C827-C837 31. ).
# (§1) Short Circuit Current Measurements—Cell culture inserts were mounted in modified Ussing chambers (Harvard Apparatus, Holliston, Mass.), and the monolayers were continuously short-circuited with a voltage/current clamp system (Physiologic Instruments, San Diego, Calif.). A 2-mV bipolar pulse was applied periodically to measure the resistance of the monolayer. As previously described by Bridges et al. (Bridges, R. J., Newton, B. B., Pilewski, J. M., Devor, D. C., Poll, C. T., and Hall, R. L. (2001), Na+ transport in normal and CF human bronchial epithelial cells is inhibited by BAY 39-9437, Am. J. Physiol. 281, L16-L23 32, Na^+ transport in normal and CF human bronchial epithelial cells is inhibited by BAY 39-9437), the bath solution contained (in mM) 120 NaCl, 25 NaHCO3, 3.3 KH2PO4, 0.8 K2HPO4, 1.2 MgCl2, 1.2 CaCl2, and 10 glucose. The pH of this solution was 7.4 when gassed with a mixture of 95% O2-5% CO2 at 37° C.
# Primary cultures of HAE cells grown on permeable membrane supports and mounted in modified Ussing chambers were continuously short-circuited by a voltage clamp amplifier (Physiologic Instruments, San Diego, Calif.). Monolayers were exposed to increasing concentrations of either the γ-peptide (closed circles) or a scrambled peptide (open circles). […] (n=8-9).
# Vectors and Cell Culture—Wild-type, C-terminal and double epitope tagged mouse ENaC subunit cDNAs were previously described (Hughey, R. P., Mueller, G. M., Bruns, J. B., Kinlough, C. L., Poland, P. A., Harkleroad, K. L., Carattino, M. D., and Kleyman, T. R. (2003) J Biol Chem 278, 37073-37082 and Ahn, Y. J., Brooker, D. R., Kosari, F., Harte, B. J., Li, J., Mackler, S. A., and Kleyman, T. R. (1999), Cloning and functional expression of the mouse epithelial sodium channel, Am J Physiol 277, F121-129). The γ subunit mutations were generated in pcDNA3.1 (+) using a standard two-step PCR method. A cDNA clone (IMAGE #: 3600399) encoding full length mouse prostasin was obtained from Open Biosystems (Huntsville, Ala.) and sub-cloned into pcDNA3.1 (+) (Invitrogen, Carlsbad, Calif.). MDCK type 1 cells were a gift from Barry M. Gumbiner (Memorial Sloan-Kettering Cancer Center, New York) and were cultured as previously described (Lavelle, J. P., Negrete, H. O., Poland, P. A., Kinlough, C. L., Meyers, S. D., Hughey, R. P., and Zeidel, M. L. (1997), Low permeabilities of MDCK cell monolayers: a model barrier epithelium, Am J Physiol 273, F67-75). CCD (mpkCCDc14) cells were a gift from Alain Vandewalle (Institut National de la Santéet de la Recherche Médicale, Paris, France) and were cultured as previously described (Bens, M., Vallet, V., Cluzeaud, F., Pascual-Letallec, L., Kahn, A., Rafestin-Oblin, M. E., Rossier, B. C., and Vandewalle, A. (1999) J Am Soc Nephrol 10, 923-934). HAE cells were isolated and cultured as described (Devor, D. C., Bridges, R. J., and Pilewski, J. M. (2000), Pharmacological modulation of ion transport across wild-type and DeltaF508 CFTR-expressing human bronchial epithelia, Am J Physiol Cell Physiol 279, C461-479). […]
# [2] = target: T2, endogenous ENaC in mpkCCDc14 cells (Mus musculus, UniProt Q61180+Q9WU38+Q9WU39); assay: Amiloride-sensitive short circuit current in mpkCCDc14 monolayers, Ussing chamber; assay type: cell-based; settings: peptide 50 μM
# T2 construct: endogenous ENaC in a mouse cortical collecting duct (mpkCCDc14) cell line; endogenous in cells; host or cells: mpkCCDc14 mouse cortical collecting duct cell line
# [3] = target: T2, endogenous ENaC in mpkCCDc14 cells; assay: as above; assay type: cell-based; settings: mpkCCDc14, increasing concentrations of peptide
# Method: mpkCCDc14 Cell Culture—mpkCCDc14 cells were grown as previously reported (Bens, M., Vallet, V., Cluzeaud, F., Pascual-Letallec, L., Kahn, A., Rafestin-Oblin, M. E., Rossier, B. C., and Vandewalle, A. (1999), Corticosteroid-dependent sodium transport in a novel immortalized mouse collecting duct principal cell line, J. Am. Soc. Nephrol. 10, 923-934). mpkCCDc14 cells were subcultured onto permeable filter supports coated with collagen (0.4-μm pore size, 1-cm^2 surface area, Snapwell filters; Coming Inc., Acton, Mass.). Cells were kept on filters for at least 4 days in defined medium (Bens, M., Vallet, V., Cluzeaud, F., Pascual-Letallec, L., Kahn, A., Rafestin-Oblin, M. E., Rossier, B. C., and Vandewalle, A. (1999) J. Am. Soc. Nephrol. 10, 923-934 30) that was changed every second day. At least 24 h prior to the experiments, the culture medium was replaced with a minimal medium (without drugs or hormones) that contained only Dulbecco's modified Eagle's medium and Ham's F-12.
# as §1
# (FIG. 6A) mpkCCDc14cells cultured on permeable membrane supports and mounted in a modified Ussing chamber were continuously short-circuited by a voltage clamp amplifier (Physiologic Instruments, San Diego, Calif.). Transepithelial resistance was monitored by applying a 4 mV bipolar pulse every 60 seconds. Where indicated, a 43 residue peptide corresponding to E144-K186 of mouse γ-ENaC (γ-peptide) was added to the apical chamber at a final concentration of 3 μM. […] Data presented as mean +/−standard error (n=8).
# Vectors and Cell Culture—Wild-type, C-terminal and double epitope tagged mouse ENaC subunit cDNAs were previously described (Hughey, R. P., Mueller, G. M., Bruns, J. B., Kinlough, C. L., Poland, P. A., Harkleroad, K. L., Carattino, M. D., and Kleyman, T. R. (2003) J Biol Chem 278, 37073-37082 and Ahn, Y. J., Brooker, D. R., Kosari, F., Harte, B. J., Li, J., Mackler, S. A., and Kleyman, T. R. (1999), Cloning and functional expression of the mouse epithelial sodium channel, Am J Physiol 277, F121-129). The γ subunit mutations were generated in pcDNA3.1 (+) using a standard two-step PCR method. A cDNA clone (IMAGE #: 3600399) encoding full length mouse prostasin was obtained from Open Biosystems (Huntsville, Ala.) and sub-cloned into pcDNA3.1 (+) (Invitrogen, Carlsbad, Calif.). MDCK type 1 cells were a gift from Barry M. Gumbiner (Memorial Sloan-Kettering Cancer Center, New York) and were cultured as previously described (Lavelle, J. P., Negrete, H. O., Poland, P. A., Kinlough, C. L., Meyers, S. D., Hughey, R. P., and Zeidel, M. L. (1997), Low permeabilities of MDCK cell monolayers: a model barrier epithelium, Am J Physiol 273, F67-75). CCD (mpkCCDc14) cells were a gift from Alain Vandewalle (Institut National de la Santéet de la Recherche Médicale, Paris, France) and were cultured as previously described (Bens, M., Vallet, V., Cluzeaud, F., Pascual-Letallec, L., Kahn, A., Rafestin-Oblin, M. E., Rossier, B. C., and Vandewalle, A. (1999) J Am Soc Nephrol 10, 923-934).
# [4] = target: endogenous ENaC in primary cultures of human airway epithelial (HAE) cells (human, UniProt P51168 1-640); assay: cell-based or functional assay
# [5] = target: endogenous ENaC in the mouse cortical collecting duct cell line mpkCCDc14 (mouse, UniProt Q9WU38 1-638); assay: cell-based or functional assay
# [6] = target: wild-type αβγ mouse epithelial sodium channel (ENaC) expressed in Xenopus oocytes (mouse, UniProt Q9WU38 1-638); assay: cell-based or functional assay
# Sequence of wild-type αβγ mouse epithelial sodium channel (ENaC) expressed in Xenopus oocytes (chain, as listed by the source, chain 1 of 3): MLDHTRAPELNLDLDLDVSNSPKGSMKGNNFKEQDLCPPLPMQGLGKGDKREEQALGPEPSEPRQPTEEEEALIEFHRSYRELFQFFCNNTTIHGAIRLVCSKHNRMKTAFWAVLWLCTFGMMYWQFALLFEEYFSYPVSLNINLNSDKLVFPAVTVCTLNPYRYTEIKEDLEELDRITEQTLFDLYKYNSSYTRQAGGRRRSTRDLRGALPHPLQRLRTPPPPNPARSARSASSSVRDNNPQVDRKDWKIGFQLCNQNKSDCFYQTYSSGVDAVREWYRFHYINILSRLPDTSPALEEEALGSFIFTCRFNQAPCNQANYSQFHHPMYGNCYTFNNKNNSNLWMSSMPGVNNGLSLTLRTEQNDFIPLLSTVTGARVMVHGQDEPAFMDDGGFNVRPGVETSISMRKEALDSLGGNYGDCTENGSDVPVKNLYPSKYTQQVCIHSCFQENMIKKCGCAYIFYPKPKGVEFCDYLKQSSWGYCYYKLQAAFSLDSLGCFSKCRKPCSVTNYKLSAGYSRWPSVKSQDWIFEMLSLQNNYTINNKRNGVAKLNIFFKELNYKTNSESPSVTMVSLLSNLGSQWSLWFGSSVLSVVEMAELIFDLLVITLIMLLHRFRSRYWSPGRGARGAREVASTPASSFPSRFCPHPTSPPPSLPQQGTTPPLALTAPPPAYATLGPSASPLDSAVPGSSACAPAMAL
# Sequence of wild-type αβγ mouse epithelial sodium channel (ENaC) expressed in Xenopus oocytes (Q9WU38 whole entry, chain 2 of 3): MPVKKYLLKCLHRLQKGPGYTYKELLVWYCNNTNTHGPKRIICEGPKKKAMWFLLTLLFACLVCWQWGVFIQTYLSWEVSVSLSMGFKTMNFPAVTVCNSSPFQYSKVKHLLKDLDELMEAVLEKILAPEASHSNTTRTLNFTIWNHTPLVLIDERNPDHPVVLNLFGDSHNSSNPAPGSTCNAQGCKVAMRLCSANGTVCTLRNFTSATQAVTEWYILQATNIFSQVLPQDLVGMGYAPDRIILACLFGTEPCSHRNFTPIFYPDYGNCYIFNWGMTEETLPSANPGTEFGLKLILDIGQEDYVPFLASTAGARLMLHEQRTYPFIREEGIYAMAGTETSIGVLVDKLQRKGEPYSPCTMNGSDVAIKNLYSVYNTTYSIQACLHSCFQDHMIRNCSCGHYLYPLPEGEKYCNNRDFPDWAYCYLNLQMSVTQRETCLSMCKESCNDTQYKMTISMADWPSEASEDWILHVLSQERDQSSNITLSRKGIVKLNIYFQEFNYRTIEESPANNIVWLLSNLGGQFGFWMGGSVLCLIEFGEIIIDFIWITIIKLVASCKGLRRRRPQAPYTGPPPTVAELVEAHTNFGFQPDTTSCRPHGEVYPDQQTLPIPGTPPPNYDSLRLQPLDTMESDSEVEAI
# Sequence of wild-type αβγ mouse epithelial sodium channel (ENaC) expressed in Xenopus oocytes (chain, as listed by the source, chain 3 of 3): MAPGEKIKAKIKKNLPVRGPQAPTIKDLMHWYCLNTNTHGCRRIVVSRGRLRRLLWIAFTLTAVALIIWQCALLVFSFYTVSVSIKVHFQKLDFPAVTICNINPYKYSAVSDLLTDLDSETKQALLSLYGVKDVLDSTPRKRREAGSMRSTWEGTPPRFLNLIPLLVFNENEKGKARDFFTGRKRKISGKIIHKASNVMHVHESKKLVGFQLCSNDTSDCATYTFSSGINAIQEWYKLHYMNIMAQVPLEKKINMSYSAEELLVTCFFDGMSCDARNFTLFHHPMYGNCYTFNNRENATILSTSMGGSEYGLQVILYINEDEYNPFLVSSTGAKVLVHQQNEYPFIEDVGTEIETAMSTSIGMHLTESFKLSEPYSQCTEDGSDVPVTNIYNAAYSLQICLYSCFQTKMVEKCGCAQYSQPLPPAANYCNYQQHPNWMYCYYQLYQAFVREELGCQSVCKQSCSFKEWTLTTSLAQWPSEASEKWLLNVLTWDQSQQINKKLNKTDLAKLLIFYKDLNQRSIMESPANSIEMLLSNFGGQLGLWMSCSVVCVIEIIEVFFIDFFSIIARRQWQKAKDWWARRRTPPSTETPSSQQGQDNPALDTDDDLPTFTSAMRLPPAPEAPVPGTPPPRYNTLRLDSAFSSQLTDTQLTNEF
# T1 sequence (P37088 1-178): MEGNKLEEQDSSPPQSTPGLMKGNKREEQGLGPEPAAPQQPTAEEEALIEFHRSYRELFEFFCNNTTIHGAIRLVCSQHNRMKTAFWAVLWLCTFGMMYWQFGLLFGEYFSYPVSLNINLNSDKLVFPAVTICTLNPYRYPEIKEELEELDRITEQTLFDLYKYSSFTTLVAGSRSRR
# T1 sequence (P37088 205-669): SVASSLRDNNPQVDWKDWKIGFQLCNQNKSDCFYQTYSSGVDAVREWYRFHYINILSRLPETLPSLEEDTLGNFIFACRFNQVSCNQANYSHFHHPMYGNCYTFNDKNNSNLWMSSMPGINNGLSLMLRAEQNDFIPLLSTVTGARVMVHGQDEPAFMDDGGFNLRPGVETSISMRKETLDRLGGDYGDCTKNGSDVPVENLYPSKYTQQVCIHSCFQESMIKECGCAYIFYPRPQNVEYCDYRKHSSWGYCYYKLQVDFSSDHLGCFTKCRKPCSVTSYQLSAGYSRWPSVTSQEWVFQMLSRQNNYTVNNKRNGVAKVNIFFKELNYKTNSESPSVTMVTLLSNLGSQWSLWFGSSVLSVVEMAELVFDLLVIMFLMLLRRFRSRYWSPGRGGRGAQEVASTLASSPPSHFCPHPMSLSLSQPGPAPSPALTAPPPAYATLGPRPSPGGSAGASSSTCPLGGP
# T1 sequence (P51168 whole entry): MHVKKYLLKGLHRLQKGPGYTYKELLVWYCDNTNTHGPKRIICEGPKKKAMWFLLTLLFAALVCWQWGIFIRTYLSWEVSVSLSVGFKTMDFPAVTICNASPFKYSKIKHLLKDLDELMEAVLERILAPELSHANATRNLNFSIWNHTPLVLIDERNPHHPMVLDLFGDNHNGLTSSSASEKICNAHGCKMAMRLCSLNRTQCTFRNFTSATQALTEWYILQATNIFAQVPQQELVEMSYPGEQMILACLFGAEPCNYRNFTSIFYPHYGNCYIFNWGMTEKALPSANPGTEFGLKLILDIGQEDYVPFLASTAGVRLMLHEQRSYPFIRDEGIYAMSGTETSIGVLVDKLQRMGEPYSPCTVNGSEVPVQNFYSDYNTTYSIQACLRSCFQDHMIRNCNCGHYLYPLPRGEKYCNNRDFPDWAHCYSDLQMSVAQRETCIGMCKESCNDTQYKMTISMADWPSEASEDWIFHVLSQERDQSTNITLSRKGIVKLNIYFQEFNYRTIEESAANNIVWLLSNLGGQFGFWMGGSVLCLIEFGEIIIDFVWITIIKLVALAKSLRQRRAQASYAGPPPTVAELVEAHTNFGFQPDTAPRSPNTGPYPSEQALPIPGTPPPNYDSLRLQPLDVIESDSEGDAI
# T1 sequence (P51170 1-138): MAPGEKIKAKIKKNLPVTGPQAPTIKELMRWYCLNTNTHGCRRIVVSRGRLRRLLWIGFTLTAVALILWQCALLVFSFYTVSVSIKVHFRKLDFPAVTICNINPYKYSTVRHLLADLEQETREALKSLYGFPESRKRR
# T1 sequence (P51170 182-649): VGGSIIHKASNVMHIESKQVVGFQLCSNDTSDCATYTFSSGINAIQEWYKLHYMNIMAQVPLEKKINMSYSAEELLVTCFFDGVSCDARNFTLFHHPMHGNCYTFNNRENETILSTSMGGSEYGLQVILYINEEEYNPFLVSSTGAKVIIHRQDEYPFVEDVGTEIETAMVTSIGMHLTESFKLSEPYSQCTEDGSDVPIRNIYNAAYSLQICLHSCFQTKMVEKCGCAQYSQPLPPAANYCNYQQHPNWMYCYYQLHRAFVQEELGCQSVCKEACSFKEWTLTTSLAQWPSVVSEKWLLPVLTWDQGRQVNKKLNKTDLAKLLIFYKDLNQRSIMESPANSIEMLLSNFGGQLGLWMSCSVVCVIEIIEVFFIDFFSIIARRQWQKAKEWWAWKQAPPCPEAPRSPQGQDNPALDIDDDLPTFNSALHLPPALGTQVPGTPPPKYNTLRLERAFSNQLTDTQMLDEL
# Sequence of endogenous ENaC in the mouse cortical collecting duct cell line mpkCCDc14 (chain, as listed by the source, chain 1 of 3): as the sequence (chain, as listed by the source, chain 1 of 3) above
# Sequence of endogenous ENaC in the mouse cortical collecting duct cell line mpkCCDc14 (Q9WU38 whole entry, chain 2 of 3): as the sequence (Q9WU38 whole entry, chain 2 of 3) above
# Sequence of endogenous ENaC in the mouse cortical collecting duct cell line mpkCCDc14 (chain, as listed by the source, chain 3 of 3): as the sequence (chain, as listed by the source, chain 3 of 3) above
molecule,measurement,setting,value
"PLTQPRPRLADHNPLSARRRPLPAGP (Ac-PLTQPRPRLADHNPLSARRRPLPAGP-NH2) [SCR, reference compound]",inhibition of Isc,[1]; peptide 50 μM,did not inhibit
same,inhibition of Isc,[2],did not inhibit
"FKGFVGKEALREILTFWLRFNNTEMDSKPLRTRANPPSKGGRE (Ac-FKGFVGKEALREILTFWLRFNNTEMDSKPLRTRANPPSKGGRE-NH2) [scrambled peptide, reference compound]",inhibition of amiloride sensitive short circuit currents,[3],minimal effect; also recorded: failed to inhibit
same,inhibition of amiloride sensitive short circuit currents,[1]; increasing concentrations of peptide,minimal effect; also recorded: failed to inhibit; also recorded: only a slight inhibition
B1,"IC50, inhibition of amiloride sensitive short circuit currents in primary HAE cells (FIG. 7)",[4],1900 nM
same,"IC50, inhibition of short circuit currents in primary cultures of HAE cells (FIG. 18C)",[4],2000 nM
same,"IC50, inhibition of amiloride sensitive short circuit currents in mpkCCDc14 cells (FIG. 6B)",[5],3200 nM
same,"IC50, inhibition of short circuit currents in mouse CCD cells (FIG. 18B)",[5],3200 nM
B2,"IC50, inhibition of mouse ENaCs expressed in oocytes",[6],~1000 nM
B3,"IC50, inhibition of amiloride-sensitive short circuit current (Isc) in HAE monolayers (FIG. 5A)",[4],46000 nM
same,"IC50, inhibition of amiloride-sensitive short circuit current (Isc) in mpkCCDc14 monolayers (FIG. 5B)",[5],100000 nM
same,"IC50, inhibition of amiloride-sensitive whole cell Na+ current in oocytes, holding potential -20 mV",[6],2900 nM
same,"IC50, inhibition of amiloride-sensitive whole cell Na+ current in oocytes, holding potential -100 mV",[6],2900 nM
same,"IC50, inhibition of amiloride-sensitive whole cell Na+ current, two-electrode voltage clamp in Xenopus oocytes (FIG. 3A; holding potential -60 mV, value repeated in the same paragraph)",[6],2800 nM
